Values of other authors as cited in article PMC3045798.

Molecular target: Cys25 (UniProt position 158, GSCGSCWAFSA)

Papain (Carica papaya (not stated in the article))
pKa: around 2.5 to 3.5
